Source: paper PMC11535050 (The EMBO Journal, 2024)

B1: NatT toxin (PA1030), His-tagged, wild type (enzyme)
chain: SEIWRQCKGERHIRPLQGRLVRLVESQEQVATLQLVDTLEEQALLEELLESSKPPVPADAEPLHYLLKTPFRYPPLRWGSRFGRRHEPSLFYAALKLETAMAESAYYRCVLWSGMVVPPPSGRILSEHASFEAGWKVERGIRLQAPPFSDHEAALTDIADYRAPQELGSAMRSAGVQAFEYRSARCPERGCNVALFTPAAFTEKRPRNLTPWLCETTAGYVAFKPAHVPGSPKIFSWELFLVDGKLPHPA
notes: also called NAD+ degrading toxin; RES domain toxin; source: E. coli BL21 (DE3), pRSF-Duet-1, co-expressed with NatR, purified as a complex (HisTrap, SEC)

Tests used:
[1] = biological target: NatR anti-toxin (PA1029), co-expressed with His-tagged NatT in E. coli (Pseudomonas aeruginosa); assay: mass photometry; co-purified NatR-NatT complexes at a final concentration of 10 nM, 50 mM Bicine pH 8.5, 50 mM KCl, Refeyn OneMP
[2] = biological target: NatT toxin (PA1030), His-tagged, wild type (Pseudomonas aeruginosa) (UniProt Q9I4U4); assay: as above
[3] = biological target: NatR anti-toxin (PA1029), co-expressed with His-tagged NatT in E. coli (Pseudomonas aeruginosa); assay: crystal structure; NatR-NatT wild-type complex, sitting drop, 2.5 mg/ml, 0.2 M sodium sulfate, 0.1 M Bis-Tris propane 7.5, 20% PEG 3350, 20 C
[4] = biological target: the molecule itself; assay: as above

Molecule | stoichiometry N [1] | stoichiometry N (NatR per NatT) [2] | stoichiometry N [3] | stoichiometry N [4]
NatR anti-toxin (PA1029), co-expressed with His-tagged NatT in E. coli (natural protein) | 2 | 2 | 2 | –
B1 | – | – | – | 2
